Residue numbers refer to the chain shown, from its start.
T1: Human MuSK (R&D Systems, cat. 10189-MK, histidine tag) (human, UniProt O15146 24-495)
T1 construct: Bought protein; also called human monomeric MuSK-6xhis; not shown: histidine tag (6xhis)
T1 sequence: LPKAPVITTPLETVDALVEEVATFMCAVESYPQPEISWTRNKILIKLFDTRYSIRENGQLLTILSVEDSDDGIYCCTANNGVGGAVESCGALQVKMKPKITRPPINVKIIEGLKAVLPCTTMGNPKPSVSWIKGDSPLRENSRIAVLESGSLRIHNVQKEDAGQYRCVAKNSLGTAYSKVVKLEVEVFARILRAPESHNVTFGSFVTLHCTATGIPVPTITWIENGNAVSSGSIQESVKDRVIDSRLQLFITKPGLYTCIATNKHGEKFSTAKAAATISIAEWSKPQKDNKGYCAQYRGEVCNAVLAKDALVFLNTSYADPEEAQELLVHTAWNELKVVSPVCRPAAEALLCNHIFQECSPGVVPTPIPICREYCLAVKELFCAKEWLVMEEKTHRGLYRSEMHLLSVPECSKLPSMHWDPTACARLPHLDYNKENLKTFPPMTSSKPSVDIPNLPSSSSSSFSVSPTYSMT

T2: hMuSK delta 1 (Ig2-3 Fz) (human, UniProt O15146)
T2 construct: truncated extracellular domain, captured by anti-FLAG
T2 sequence (truncated extracellular domain, looked up): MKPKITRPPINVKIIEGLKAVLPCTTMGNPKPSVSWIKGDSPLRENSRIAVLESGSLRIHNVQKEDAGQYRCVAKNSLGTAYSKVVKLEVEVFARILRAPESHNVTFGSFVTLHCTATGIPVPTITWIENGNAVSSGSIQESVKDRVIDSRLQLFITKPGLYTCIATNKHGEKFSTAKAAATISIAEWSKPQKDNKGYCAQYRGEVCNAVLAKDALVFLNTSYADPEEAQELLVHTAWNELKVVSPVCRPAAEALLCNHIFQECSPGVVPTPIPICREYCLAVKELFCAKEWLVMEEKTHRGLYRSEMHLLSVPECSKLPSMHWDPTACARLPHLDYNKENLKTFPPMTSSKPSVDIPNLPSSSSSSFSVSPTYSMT

T3: human monomeric MuSK FLAG streptavidin (in house produced, batch 27-6-2019) (human, UniProt O15146 24-495)
T3 construct: also called full length MuSK; not shown: FLAG and streptavidin tags
T3 sequence: T1 sequence

B1: 3D10a (antibody, human IgG1, kappa, L234A L235A, V domains shown)
VH: EVQLVESGGGLVKPGGSLRLSCAASGFTFSASTMAWVRQAPGKGLEWVSSVSGDSHHIYYADSLKGRFTISRDNAKNSLYLQMNSLRAEDTAVYYCARERLLRLGVGFDSWGQGTLVTVSS
VL: DIQMTQSPSSLSASVGDRVTITCRASQRISGFVNWYQQKPGKAPKLLIYAASTLQSGVPSRFSGSGSGTDFTLTISSLQPEDFATYYCQQSYSPLYTFGQGTKLEIKR
B2: 4D3 (antibody, human IgG1, kappa, L234A L235A, V domains shown)
VH: B1 VH with A31S, S32Y, A35T, V51I, G53S, D54G, S55G, H57Y, A61T, S110F
VL: B1 VL with R28S, F32Y, V33L, P94A
B3: 3D9b (antibody, human IgG1, kappa, L234A L235A, V domains shown)
VH: EVQLVESGGGLVKPGGSLRLSCAASGFTFSTYTMHWVRQAPGKGLEWVSSISSRSAYKYYADSVKGRFTISRDNAKNSLYLQMNSLRAEDTAVYYCARDFFQLGPPRFDSWGQGTLVTVSS
VL: B1 VL with G31S, V33L, A50G, T53N, L95S
B4: 3F6c (antibody, human IgG1, kappa, L234A L235A, V domains shown)
VH: EVQLVESGGGLVKPGGSLRLSCAASGFTFSSYTMDWVRQAPGKGLEWVSSIGSNGDYIYYADSVRGRFTISRDNAKNSLYLQMNSLRAEDTAVYYCARGQLAVAGTHFDYWGQGTLVTVSS
VL: B1 VL with R28K, I29V, S30N, G31K, F32Y, Y96S

target: T1, Human MuSK (R&D Systems, cat. 10189-MK, …); test: SPR (Biacore), antibody captured on anti-hFc chip; 0.625 nM; dissociation pH 5.5
Source text: (§1) In order to study pH dependent binding of our antibodies to MuSK, the Biacore was used with the same setup as described in the paragraph entitled “Binding affinity for mouse, human and rhesus monkey recombinant MuSK in Biacore”. 6. […] For the other antibodies there is no real difference observed between pH 7.4 and 5.5.

koff | Binder
0.00012 s⁻¹ | B1
0.00013 s⁻¹ | B2
4e-05 s⁻¹ | B3
0.00014 s⁻¹ | B4

target: T1, Human MuSK (R&D Systems, cat. 10189-MK, …); test: SPR (Biacore), antibody captured on anti-hFc chip; 2.5 nM; dissociation pH 7.4
Source text: as §1

koff | Binder
0.00018 s⁻¹ | B1
0.00015 s⁻¹ | B2
9e-05 s⁻¹ | B3
6e-05 s⁻¹ | B4

target: T1, Human MuSK (R&D Systems, cat. 10189-MK, …); test: SPR (Biacore), MuSK-coated chip, antibody alone (run of first antibody 4D3)
Protocol: A chip was coated with ˜5000 RU of human MuSK (Lot nr DHUCO 11908A, batch nr 1089_MK). In a first experiment the saturating concentration of the pre-leads was determined. This is the concentration where the amplitude of a specific pre-lead doesn't increase anymore when additional pre-lead is injected on the immobilized MuSK.

amplitude of prelead without presaturating MuSK (RU) | Binder
951 RU | B1
859 RU | B2
1100 RU | B3
1010 RU | B4

target: T1, Human MuSK (R&D Systems, cat. 10189-MK, …); test: SPR (Biacore), antibody captured on anti-hFc chip; average of 0.3125-10 nM; dissociation pH 7.4
Source text: as §1

koff | Binder
0.00016 s⁻¹ | B1
0.00014 s⁻¹ | B2
0.00012 s⁻¹ | B3
8e-05 s⁻¹ | B4

target: T2, hMuSK delta 1 (Ig2-3 Fz); test: ELISA, hMuSK delta 1 (Ig2-3 Fz) captured on anti-FLAG coat, antibody titrated, anti-human Fc HRP detection, OD450
Protocol: For binding to MuSK domains—An ELISA plate was coated with 0.5 μg/ml of anti-FLAG (M2 clone, Sigma Cat. F3165) and incubated overnight at 4° C. Next, the plate was washed with PBS and blocked with 1×PBS 1% casein for two hours at RT. After washing the plate, human monomeric MuSK FLAG streptavidin (batch 27-6-2019) and truncated MuSK variants (batch 3-9-2019) at 1 μg/ml in PBS where incubated for one hour at RT. After washing the plate, antibodies were diluted in blocking buffer and added to the plate. After a one hour incubation at RT, the plate was washed. Next, detecting antibody was added and incubated for one hour at RT (anti-human Fc HRP (1/5000) (clone 5A9, cat. No. Ab7499, ABCAM)) in blocking buffer. Lastly, the plate was washed with PBS and TMB was added and the reaction was stopped with 0.5 M H2SO4. OD 450 nm was determined by the Tecan Sunrise ELISA plate reader.
For the MuSK domain binding ELISA, binding of anti-MuSK antibodies to FLAG captured human monomeric MuSK and truncated variants was tested (FIG. 6). 3D9b, 3F6c, 3D10a, 4D3 and 3B5 bound only to full length MuSK, no binding was observed against the truncated MuSK variants. Therefore, we conclude that our antibodies bind to the Ig1 domain.

Binder | binding result
B1 | no binding (tested: log(conc) 4.2 (about 16000 ng/ml))
B2 | no binding (tested: log(conc) 4.2 (about 16000 ng/ml))
B3 | no binding (tested: log(conc) 4.2 (about 16000 ng/ml))
B4 | no binding (tested: log(conc) 4.2 (about 16000 ng/ml))

target: T3, human monomeric MuSK FLAG streptavidin …; test: epitope binning ELISA (coated anti-MuSK Fab, MuSK, IgG, anti-Fc HRP); competitor: 3F6c
Protocol: For epitope binning—An ELISA plate was coated at 1 μg/ml of the anti-MuSK Fabs and incubated overnight at 4° C. Next, the plate was wash with PBS followed by blocking with 1% casein in PBS for one hour. After washing the plate, 1 μg/ml of human monomeric MuSK (in house produced, batch 27-6-2019) was incubated for one hour at RT. The plate was washed and anti-MuSK antibodies at 0.3-10 μg/ml were added to the plate and incubated for one hour at RT. After washing the plate, detection antibody (goat anti-human Fc HRP (Jackson Immunoresearch cat. 109-035-098)) was added at 5000 fold dilution in PBS 0.1% casein. The plate was incubated for one hour at RT and washed with PBS-T. TMB was added and the reaction was stopped by adding H2504. […]
For the epitope binning ELISA, a plate was coated with anti-MuSK Fab and human monomeric MuSK was added after blocking the plate. Next the different antibodies were added and allowed to bind.

OD 450 nm | Binder
0.162 OD | B1
0.1 OD | B2
0.186 OD | B3
0.156 OD | B4

target: T1, Human MuSK (R&D Systems, cat. 10189-MK, …); test: SPR (Biacore), antibody captured on anti-hFc chip; 1.25 nM; dissociation pH 7.4
Source text: as §1

koff | Binder
0.00016 s⁻¹ | B1
0.00015 s⁻¹ | B2
0.00014 s⁻¹ | B3
7e-05 s⁻¹ | B4

— US20230110188A1 (ARGENX IIP, published 2023)
